From CN112646041A
pEC50: −log10 of the molar value.

Target: 人CD64 ECD-his抗原(SINO BIOLOGICAL，货号:10256-H08H) (human) (UniProt P12314)
Assay: ELISA, antibody coated at 67 to 0.0043 nM, CD64 ECD-his at 1 μg/mL

**Q.** With hIgG1对照组(SIGMA，货号I4506) (antibody) as the substance, how does the pEC50 read?
**A.** Its pEC50 is 8.88.
